PMC12455937, “Interaction of West Nile virus NS5 with orthoflavivirus SLA RNAs and their effects on viral replication and inhibition” (Journal of Virology, 2025)
Values joined by “and” are separate entries in the source; they are usually repeats but may differ in a detail not shown here. Equal entries are not always repeated.

Target: the molecule itself
Experiment: mass photometry; NS5 alone at 20 nM in MP buffer (50 mM HEPES, pH 7.5, 40 mM NaCl, 10 mM MgCl2); TwoMP (Refeyn); DENV NS3 and NS5 as mass standards; oligomers assigned from peak masses

B1: Full-length lineage II WNV NS5 (enzyme)
chain: not shown
notes: also called full-length NS5; viral polymerase
- stoichiometry N: 2 and 3 and 4
